Source: patent US20240158497A1 (published 2024)

T1: human gp130 expressed endogenously on IMR-32/Stat3-luc cells (human, UniProt P40189 23-918)
T1 construct: Endogenous gp130 of the human neuroblastoma line IMR-32
T1 sequence: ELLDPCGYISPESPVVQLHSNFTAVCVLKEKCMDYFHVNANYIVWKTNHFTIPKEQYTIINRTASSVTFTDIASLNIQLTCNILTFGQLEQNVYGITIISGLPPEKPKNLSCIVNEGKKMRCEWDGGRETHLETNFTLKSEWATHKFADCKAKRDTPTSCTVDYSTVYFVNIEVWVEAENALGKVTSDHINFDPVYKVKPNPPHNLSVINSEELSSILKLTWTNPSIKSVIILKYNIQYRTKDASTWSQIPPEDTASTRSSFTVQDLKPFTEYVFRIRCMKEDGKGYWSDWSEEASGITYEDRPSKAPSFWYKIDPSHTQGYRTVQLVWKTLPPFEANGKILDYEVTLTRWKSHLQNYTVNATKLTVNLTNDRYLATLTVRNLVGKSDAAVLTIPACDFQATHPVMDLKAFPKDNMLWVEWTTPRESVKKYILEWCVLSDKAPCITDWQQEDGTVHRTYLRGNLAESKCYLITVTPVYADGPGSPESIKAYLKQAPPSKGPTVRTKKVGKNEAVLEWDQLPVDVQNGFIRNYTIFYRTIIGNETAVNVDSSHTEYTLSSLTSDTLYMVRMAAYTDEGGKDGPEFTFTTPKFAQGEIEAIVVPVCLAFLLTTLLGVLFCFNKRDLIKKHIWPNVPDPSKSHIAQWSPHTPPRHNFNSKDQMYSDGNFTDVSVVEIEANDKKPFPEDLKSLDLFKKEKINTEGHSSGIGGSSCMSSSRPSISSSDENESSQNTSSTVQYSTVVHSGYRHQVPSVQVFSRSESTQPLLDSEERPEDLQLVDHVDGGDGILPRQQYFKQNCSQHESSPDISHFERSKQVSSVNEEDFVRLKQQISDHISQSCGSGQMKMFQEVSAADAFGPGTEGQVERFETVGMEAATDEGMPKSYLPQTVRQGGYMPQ


Key:
[1] = biological target: T1, human gp130 expressed endogenously on …; assay: FACS, 10 nM Ab pre-bound to 1 uM hGP130.mmh, IMR-32/Stat3-luc cells
From the text: (§1) In order to assess cell binding by anti-GP130 antibodies of the invention two cell lines were generated. One cell line generated was HEK293 cells stably over-expressing full length (FL) human gp130 (amino acids 1-918 of accession #P40189 with leucine at position 2 changed to valine, a natural variant) along with a luciferase reporter (Stat3-luciferase, Stat3-luc, SA Bioscience, #CLS-6028L). The cells were sorted twice using flow cytometry for high expression of gp130. It is known hereafter as HEK293/Stat3-luc/gp130-2 X Sort. IMR-32 cells (human Neuroblastoma, ATCC), were also evaluated for cell binding as these cells express gp130 endogenously and were used for bioassays. The cells used for binding were generated to stably express a luciferase reporter (Stat3-luciferase, Stat3-luc, SA Bioscience, #CLS-6028L), and are referred to hereafter as IMR-32/STAT3-Luc cells.
(§2) For the FACS analysis, 10 nM of the antibodies were used to stain 0.5×10⁶ cells/well of each cell type at 4° C. in PBS (without calcium and magnesium) containing 2% FBS for 30 minutes. IMR-32/STAT3-luc cells were incubated with 1 mg/mL mouse IgG for 30 minutes at 4° C. to block Fc receptors prior to adding the antibodies. To test whether the anti-gp130 antibody binding is specific for gp130 on the IMR-32 cells, antibodies were added to IMR-32/Stat3-luc cells with or without being pre-bound to 1000 nM of recombinant protein of the ecto-domain of human gp130 fused to myc-myc-his tag (hgp130.mmh) for 30 minutes at 25° C. […] Cells were fixed using BD CytoFix™ (Becton Dickinson, #554655) and analyzed on an IQue® (Intellicyt®) Flow Cytometer. Unstained and secondary antibody alone controls were also tested for all cell lines. The results were analyzed using ForeCyt® (IntelliCyt®) software to determine the geometric means of fluorescence for viable cells.

[2] = biological target: T1, human gp130 expressed endogenously on …; assay: FACS, 10 nM Ab, IMR-32/Stat3-luc cells, no hGP130.mmh
From the text: as §1, §2

| Binder | MFI - Normalized to Unstained Control [1] [ratio] | MFI - Normalized to Unstained Control [2] [ratio] |
| --- | --- | --- |
| MAb16665 (antibody, V domains shown, hIgG4 isotype control used) VH: QVQLVESGGGVVQPGRSLRLACAASGFTFRSYGMHWVRQAPGKGLEWVAVIWYDGSNKYYTDSVKGRFTISRDNSKNTLYLQMNSLRAEDTAMYYCAIDKWATVTTYLFDYWGQGTLVTVSS VL: not shown | 6 | 5 |
| MAb16636 (antibody, V domains shown, hIgG4 isotype control used) VH: QLQLQESGPGLVKPSETLSLICTVSGGSISSNNYYWGWIRQPPGKGLEWIGNLYGSGSTYYNPSLKSRVTISVDTSKNQFSLKLSFVTAADTAVYHCARWDTNGGAFDIWGQGTMVTVSS VL: not shown | 7 | 8 |
| MAb16614 (antibody, V domains shown, hIgG4 isotype control used) VH: QVQLVESGGGVVQPGGSLRLSCAASGFTFSTYDIHWVRQAPGKGLEWVAVISFDGSNRNYGDSVKGRFTISRDNSDNTLFLEMNNLRFEDTAVYYCAKEGYGVDFQHWGQGTLVTVSS VL: not shown | 6 | 7 |
| MAb16659 (antibody, V domains shown, hIgG4 isotype control used) VH: QVQLVQSGPEVKKPGSSVKVSCKASGGTIDRNEITWVRQAPGQGLEWMGVIIPILGEAHYERKFQGRLTITMDESTSTAYMELSNLRSEDTAVYYCARERAARGYLDYWGQGTLVTVSS VL: not shown | 8 | 8 |
| MAb16664 (antibody, V domains shown, hIgG4 isotype control used) VH: QVQLVQSGTEVKKPGSSVKVSCKASGGTFSTYPINWVRQAPGQGLEWMGGIIPIFGTASYAQKFQGRVAITTDESTSTAYMELNSLRSEDTAVYYCARERPNWGSNDYWGQGTLVTVSS VL: not shown | 8 | 7 |
| MAb16622 (antibody, V domains shown, hIgG4 isotype control used) VH: EVQLVESGGGVVRPGGSLRLSCTASGFTFDDYGMSWVRQAPGKGLEWVSGINWNGGRTEYADAVKGRFIISRDNAKNSLYLQMNSLRAEDTALYFCARTELRWDYWGQGTLVTVSS VL: not shown | 7 | 5 |
| MAb16662 (antibody, V domains shown, hIgG4 isotype control used) VH: EVQLVESGGGLVQPGGSLRLSCTASGFTFSNYAIFWVRQAPGKGLEYVSGISNNGVTKYYADSVRDRFTISRDNSRNTVSIQMDSLRTEDMAVYYCARENWGSDDGFDIWGQGTMVTVSS VL: not shown | 6 | 5 |
| MAb16656 (antibody, V domains shown, hIgG4 isotype control used) VH: EVQLVESGGGLVQPGRSLRLSCAASGFTLDDFAMHWVRQAPGKGLEWVSGISWNSGNIGYADSVKGRFTISRDNARNSLYLQMNSLRAEDTALYYCTSGYYLYYAMDVWGQGTTVTVSS VL: not shown | 7 | 12 |
| MAb16623 (antibody, V domains shown, hIgG4 isotype control used) VH: EVQLVESGGGLVQPGGSLRLSCAASGLTFSSYEMNWVRQAPGKGLEWVSHISSAGSTKYYADSVKGRFTISRDNAKNSLFLQMNSLRAEDTAIYYCAGYNYAYYYFGVDVWGQGTTVTVSS VL: not shown | 7 | 8 |
| MAb16637 (antibody, V domains shown, hIgG4 isotype control used) VH: QVQLVQSGAEVKKPGASVKVSCKASGYTFTSLGISWVRQAPGQGLEWMGWISAYSGNRDYAQKFQGRVTMTTDTSTSTAYMELRSLRSDDTAVYYCARSLRFDYWGQGTLVTVSS VL: not shown | 7 | 9 |
| MAb16618 (antibody, V domains shown, hIgG4 isotype control used) VH: QVQLQESGPGLVKPSETLSLTCTVSGGSISNYYWTWIRQPPGKGLEWIGHISNSGTTNYNPSLKSRVTISVDTSKNQFSLKLTSVTAADTAVYYCARLPLGIAAVDTDYYYYFGMDVWGQGTTVTVSS VL: not shown | 8 | 7 |

Results, then the binder that gave them:

| MFI - Normalized to Unstained Control [1] [ratio] | MFI - Normalized to Unstained Control [2] [ratio] | Binder |
| --- | --- | --- |
| 7 | 10 | MAb16673 (antibody, V domains shown, hIgG4 isotype control used) VH: EVQLVQSGAEVKKPGESLKISCKGSGYSFTSYWIDWVRQMPGKGLEWMGIIYPDDSDTRYSPSFQGQVTMSVDKSISTAYLQWSSLKASDTAIYYCARHERGIVEAGTDYYYYYGMDVWGQGTTVTVSS VL: not shown |
| 8 | 6 | MAb16682 (antibody, V domains shown, hIgG4 isotype control used) VH: EVQLVESGGGLVQPGGSLRLSCAASGFTFSTYWMNWVRQAPGKGLEWVANIKEDGSEKYYVDSVKGRFTISRDNAKNSLYLQMNSLRAEDTAVYYCAREGFGVVTYIWGQGTMVTVSS VL: not shown |
| 8 | 9 | MAb16676 (antibody, V domains shown, hIgG4 isotype control used) VH: QVQLVQSGAEVMKPGASVKVSCRASGYTFSSYDINWVRQAPGQGLEWMGWISTATGNTNYPQKVQGRVTMTTDTSTNTAYMELRSLRSDDTAVYYCTREGNSKGWLDPWGQGTLVTVSS VL: not shown |
| 5 | 6 | MAb16669 (antibody, V domains shown, hIgG4 isotype control used) VH: EVQLVESGGGLVQPGGSLRLSCAASGFTFSSYAMNWVRQAPGKGLEWVSAISGSGDSTYYTDSVKGRFTISRDNSKNTLYLQMNTLRAEDTAVYYCAKEEIVMLVGATPGWFDPWGQGTLVTVSS VL: not shown |
| 7 | 9 | MAb16683 (antibody, V domains shown, hIgG4 isotype control used) VH: QVQLVESGGGLVKPGGSLRLSCAASGFTFSDYYMTWIRQTPGKGLDWVSYISSSGTNKYNADSVKGRFTISRDNAKNSLYLQMNSLRAEDTAVYYCVRDPPWGMDVWGQGTTVTVSS VL: not shown |
| 8 | 23 | MAb16666 (antibody, V domains shown, hIgG4 isotype control used) VH: EVQLVESGGGLVQSGGSLRLSCAASGFTFSRYEMNWVRQAPGKGLEWVAYISNTGTTRDYSDSVKGRFTISRDNAKNSLYLQMSSLRVEDTAVYYCVREKFSGTSDWFDPWGQGTLVTVSS VL: not shown |
